Tests used:
[1] = target: native allophycocyanin of Agarophyton chilensis, αβ unit (Agarophyton chilensis); test: SEC; Superdex 200 HiLoad 16/60; oligomer size estimated from a calibration curve of MW standards 1,750-670,000 Da (Bio-Rad gel filtration standard); oligomer of αβ units
[2] = target: recombinant allophycocyanin of Agarophyton chilensis, αβ unit (Agarophyton chilensis); test: as above

| Substance | stoichiometry N [1] | stoichiometry N [2] |
| --- | --- | --- |
| native allophycocyanin of Agarophyton chilensis, αβ unit (complex) | 3 | – |
| recombinant allophycocyanin of Agarophyton chilensis, αβ unit (complex) | – | 3 |

— PMC7066465
